Laboratory results published in US20210054097A1 (Novo Nordisk, published 2021).
Ends that are not written are not given here.

T1: FX activation peptide 12-mer YDAADLDPTENP (human)
T1 peptide: YDAADLDPTENP-biotin

T2: FX activation peptide 12-mer DSITWKPYDAAD (human)
T2 peptide: DSITWKPYDAAD-biotin

T3: FX activation peptide 12-mer AQATSSSGEAPD (human)
T3 peptide: AQATSSSGEAPD-biotin

T4: FX activation peptide 12-mer SVAQATSSSGEA (human)
T4 peptide: SVAQATSSSGEA-biotin

T5: FX activation peptide 12-mer FDLLDFNQTQPE (human)
T5 peptide: FDLLDFNQTQPE-biotin

T6: FX activation peptide 12-mer FNQTQPERGDNN (human)
T6 peptide: FNQTQPERGDNN-biotin

T7: FX activation peptide 12-mer NPFDLLDFNQTQ (human)
T7 peptide: NPFDLLDFNQTQ-biotin

T8: FX activation peptide 12-mer ATSSSGEAPDSI (human)
T8 peptide: ATSSSGEAPDSI-biotin

T9: FX activation peptide 12-mer AADLDPTENPFD (human)
T9 peptide: AADLDPTENPFD-biotin

T10: FX activation peptide 12-mer NQTQPERGDNNL (human)
T10 peptide: NQTQPERGDNNL-biotin

T11: FX activation peptide 12-mer SGEAPDSITWKP (human)
T11 peptide: SGEAPDSITWKP-biotin

T12: FX activation peptide 12-mer VAQATSSSGEAP (human)
T12 peptide: VAQATSSSGEAP-biotin

T13: FX activation peptide 12-mer DLLDFNQTQPER (human)
T13 peptide: DLLDFNQTQPER-biotin

T14: FX activation peptide 12-mer WKPYDAADLDPT (human)
T14 peptide: WKPYDAADLDPT-biotin

T15: FX activation peptide 12-mer SSSGEAPDSITW (human)
T15 peptide: SSSGEAPDSITW-biotin

T16: FX activation peptide 12-mer DFNQTQPERGDN (human)
T16 peptide: DFNQTQPERGDN-biotin


Assays:
human activated Factor X = human activated Factor X (human, UniProt P00742 41-179; P00742 235-488); experiment: cell-based or functional assay
Chain of human activated Factor X (P00742 41-179, chain 1 of 2): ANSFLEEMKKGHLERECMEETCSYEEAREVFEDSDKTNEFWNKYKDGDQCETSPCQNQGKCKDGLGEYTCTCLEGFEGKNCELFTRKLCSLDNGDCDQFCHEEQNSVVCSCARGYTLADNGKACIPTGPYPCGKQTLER
Chain of human activated Factor X (P00742 235-488, chain 2 of 2): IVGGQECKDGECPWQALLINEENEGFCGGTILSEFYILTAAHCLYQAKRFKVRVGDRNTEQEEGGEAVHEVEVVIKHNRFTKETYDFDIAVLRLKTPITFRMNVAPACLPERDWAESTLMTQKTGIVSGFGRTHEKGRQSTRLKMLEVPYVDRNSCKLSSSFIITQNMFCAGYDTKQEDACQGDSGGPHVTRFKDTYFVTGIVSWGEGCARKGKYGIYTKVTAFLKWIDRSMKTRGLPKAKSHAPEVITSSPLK

[1] = biological target: T17, human plasma-derived Factor X zymogen (human, UniProt P00742 41-179; P00742 183-488); experiment: cell-based or functional assay
T17 sequence (P00742 41-179, chain 1 of 2): as the sequence (P00742 41-179, chain 1 of 2) above
T17 sequence (P00742 183-488, chain 2 of 2): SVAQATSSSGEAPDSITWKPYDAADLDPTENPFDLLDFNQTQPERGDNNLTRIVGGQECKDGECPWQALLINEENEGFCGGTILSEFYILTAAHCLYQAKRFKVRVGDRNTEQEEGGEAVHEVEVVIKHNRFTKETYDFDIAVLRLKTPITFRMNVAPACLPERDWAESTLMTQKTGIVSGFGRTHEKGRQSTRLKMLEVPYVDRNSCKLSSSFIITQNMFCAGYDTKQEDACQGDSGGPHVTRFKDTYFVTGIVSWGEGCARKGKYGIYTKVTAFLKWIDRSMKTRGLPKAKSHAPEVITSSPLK

[2] = biological target: T1, FX activation peptide 12-mer …; experiment: peptide ELISA
Protocol: (§1) The peptides were C-terminally conjugated to biotin and 50 μL of 1 μg/mL peptide solution was used for immobilization in discrete wells of the microtiter plate which was pre-coated with 1 μg/mL streptavidin. Each well was washed with washing buffer (10 mM Tris, 150 mM NaCl, 2.5 mM CaCl₂, 0.05% Tween 20, pH 8.60) followed by addition of 50 μL of 2 μg/mL FLAG-tagged anti-FX Nanobody® or IgG antibody to be tested. After 1 hour non-bound Nanobody®/antibody was washed off using washing buffer.
(§2) Bound anti-FX activation peptide ligand was detected by first binding a HRP-labelled secondary antibody (for FLAG-tagged Nanobodies: Anti-FLAG mAb M2-Peroxidase (HRP) (Sigma Aldrich, US), for antibody: Fcγ Fragment Specific Peroxidase AffiniPure F(ab′)₂ Fragment Goat Anti-Human IgG (Jackson ImmunoResearch Laboratories, Inc., US), or Peroxidase AffiniPure Goat Anti-Mouse IgG (Jackson ImmunoResearch Laboratories, Inc., US)) for 1 hour, and then adding 100 μL TMB-1 ELISA substrate (Kem-En-Tec Diagnostics, Denmark).

[3] = biological target: T2, FX activation peptide 12-mer …; experiment: peptide ELISA
Protocol: as §1, §2

[4] = biological target: T3, FX activation peptide 12-mer …; experiment: peptide ELISA
Protocol: as §1, §2

[5] = biological target: T4, FX activation peptide 12-mer …; experiment: peptide ELISA
Protocol: as §1, §2

[6] = biological target: T5, FX activation peptide 12-mer …; experiment: peptide ELISA
Protocol: as §1, §2

[7] = biological target: T6, FX activation peptide 12-mer …; experiment: peptide ELISA
Protocol: as §1, §2

[8] = biological target: T7, FX activation peptide 12-mer …; experiment: peptide ELISA
Protocol: as §1, §2

[9] = biological target: T8, FX activation peptide 12-mer …; experiment: peptide ELISA
Protocol: as §1, §2

[10] = biological target: T9, FX activation peptide 12-mer …; experiment: peptide ELISA
Protocol: as §1, §2

[11] = biological target: T10, FX activation peptide 12-mer …; experiment: peptide ELISA
Protocol: as §1, §2

[12] = biological target: T11, FX activation peptide 12-mer …; experiment: peptide ELISA
Protocol: as §1, §2

[13] = biological target: T12, FX activation peptide 12-mer …; experiment: peptide ELISA
Protocol: as §1, §2

[14] = biological target: T13, FX activation peptide 12-mer …; experiment: peptide ELISA
Protocol: as §1, §2

[15] = biological target: T14, FX activation peptide 12-mer …; experiment: peptide ELISA
Protocol: as §1, §2

[16] = biological target: T15, FX activation peptide 12-mer …; experiment: peptide ELISA
Protocol: as §1, §2

[17] = biological target: T16, FX activation peptide 12-mer …; experiment: peptide ELISA
Protocol: as §1, §2

[18] = biological target: T17, human plasma-derived Factor X zymogen; experiment: apparent KD fitted from FXa generation assay
Protocol: The ability of the monovalent anti-FX Nanobody® (Nb) to promote FIXa-mediated FX-activation was determined in the presence of a procoagulant phospholipid membrane according to the principles described by Scheiflinger et al. (2008) J Thromb Haemost, 6:315-322. A Fab of mAb 13F62 (IgG1 isotype, variable sequences identified by SEQ ID NO:6 and 7), also found to bind the activation peptide, were included for comparison. Moreover, anti-FX antibodies as disclosed in U.S. Pat. No. 9,334,331 (J327 and L404-k in said publication), corresponding to the anti-FX arm of ACE910); and more recently in WO2018/021450 (J327 D31H and JYL280 in said publication) and WO2018/098363 (BIIB-12-917 represented by SEQ ID NO:427 and 615 in said publication) are stated to be suitable for use as part of anti-FIX/anti-FX bispecific FVIII mimetic compounds were, furthermore, included for comparison.
Each compound was tested individually in a concentration range from 0-1000 nM, 0-2000 nM, 0-4000 nM or 0-8000 nM by pre-incubation with 1-1.5 nM human plasma-derived FIXa (Haematologic Technologies Inc, USA) and 500 μM 25:75 phosphatidyl serine:phosphatidyl choline phospholipid vesicles (Haematologic Technologies Inc, USA) in assay buffer (50 mM HEPES, 100 mM NaCl, 5 mM CaCl₂, 0.1% (w/v) PEG8000, 1 mg/mL bovine serum albumin, pH 7.3) for 10 minutes. The reaction was initiated by addition of human plasma-derived FX (Haematologic Technologies Inc, USA) to a final concentration of 100 nM and a reaction volume of 50 μL. Following 20 minutes activation at room temperature while agitated (1000 RPM), the reaction was quenched by addition of 25 μL quench buffer (50 mM HEPES, 100 mM NaCl, 60 mM EDTA, 0.1% (w/v) PEG8000, 1 mg/mL bovine serum albumin, pH 7.3). The amount of FXa generated was determined by addition of 25 μL 2 mM S-2765 chromogenic substrate for FXa (Chromogenix, Sweden) and chromogenic substrate conversion was followed by measuring absorbance at 405 nm for 10 minutes in a microplate reader. The observed change in 405 nm absorbance (ΔAbs405/min) was fitted to the quadratic binding equation (eq. 1) to obtain the peak stimulatory activity and EC50.

FXa amidolytic activity (relative to free FXa, fold) (human activated Factor X) [fold]	Increase in FX activation (fold) [1] [fold]	ELISA signal relative to background [2]	ELISA signal relative to background [3]	ELISA signal relative to background [4]	ELISA signal relative to background [5]	ELISA signal relative to background [6]	ELISA signal relative to background [7]	ELISA signal relative to background [8]	ELISA signal relative to background [9]	ELISA signal relative to background [10]	ELISA signal relative to background [11]	ELISA signal relative to background [12]	ELISA signal relative to background [13]	ELISA signal relative to background [14]	ELISA signal relative to background [15]	ELISA signal relative to background [16]	ELISA signal relative to background [17]	Kd [18] [µM]	Binder
1.01	9.2	1.28	1.22	1.19	1.21	1.28	1.16	2.82	1.19	1.21	1.22	1.18	1.24	1.18	1.14	1.21	1.16	0.0639	Nb 730C03 (VHH, monovalent Nanobody; also called Nb 730003; not shown: C-terminal FLAG3 and HIS6 tag) VHH: EVQLVESGGGVVQPGGSLRLSCVASGFTFSDYAMSWVRQAPGKGLEWVSGITSGSGRTYYADSVKGRFTISRDNSKNTVYLQMNSLRPEDTALYYCAAAILRGYRKTYDYWGQGTLVTVSS
1.09	> 32	1.09	1.09	1.17	1.14	1.15	1.08	3.41	1.13	1.17	1.09	1.07	1.09	1.22	1.08	1.1	1.1	~1.4	Nb 729C08 (VHH, monovalent Nanobody; also called Nb 729008; not shown: C-terminal FLAG3 and HIS6 tag) VHH: EVQLVESGGGVVQPGGSLRLSCAASGFTFSDYAMSWVRQAPGKGLEWVSGITGGGRTYYADSVKGRFTISRDNSKNTLYLQMNSLRPEDTALYYCAAAILTRTRRTYDYWGQGTLVTVSS
1.05	18.9	0.87	1.08	0.97	0.96	4.38	1	3.13	0.98	0.88	0.92	0.88	1.02	3.08	0.89	0.86	0.94	0.0754	Nb 702C12 (VHH, monovalent Nanobody; not shown: C-terminal FLAG3 and HIS6 tag) VHH: EVQLVESGGGVVQPGGSLRLSCVASGRTFSRYAMGWFRQAPGKEREFVAAISRRGGSTNYADSVKGRFTISRDNSKNTVYLQMNSLRPEDTALYYCAADYSSGDGYLDYWGQGTLVTVSS
